# Ends that are not written are not given here.
# B1: Hep-SILY containing aggregates: Hep-SILY made with modified purification, containing ionically interacting non-covalently bound SILY peptide; high molecular weight aggregates (conjugate)
# peptide 1: RRANAALKAGELYKSILYGSG
# peptide 2: RRANAALKAGELYKSILYGSG
# peptide 3: RRANAALKAGELYKSILYGSG
# modifications: also: conjugated to heparin (glycan) via hydrazide-carbonyl linkage, non-covalent high molecular weight aggregates
# Target: collagen
# Assay: Collagen-binding plate assay
# Conditions: compared to Hep-SILY that does not contain aggregates
# Protocol: The following method is used to assess the binding affinity of bioconjugates disclosed herein for collagen. Similar assays are employed to assess binding affinity of other targets (e.g., hyaluronic acid, ICAM, VCAM, selectin).
# Collagen-binding of bioconjugate variants was compared by a plate-assay, in which collagen was coated on 96-well plates. Collagen was coated on high-bind plates at 50 μg/mL in 0.02 N acetic acid for 1 hour at room temperature. Unbound collagen was rinsed with 1×PBS pH 7.4. Plates were then blocked in 1% milk in 1×PBS solution for 1 hour at room temperature.
# Bioconjugate variants containing biotinlyated peptides were dissolved to a final concentration of 1 mg/mL in 1% milk in 1×PBS pH 7.4. From this solution, a 10× serial dilution was performed. Molecules were then incubated on the blocked collagen-coated plates and incubated for 15 minutes at room temperature. Plates were then rinsed 3 times with 1×PBS in 1% BSA and 0.2% Tween20.
# Bound molecules were detected by streptavidin-HRP, which was diluted 1:500 in 1×PBS with 1% BSA and 0.2% Tween20 and incubated 200 μL/well for 20 minutes at room temperature. Streptavidin solution was rinsed from the plates 3 times with 1×PBS with 0.2% Tween20. […] Absorbance in the well was then measured at 450 nm and binding affinity was plotted in a dose-response by absorbance vs. concentration.
molecule,measurement,value
B1,collagen binding affinity (EC50),higher affinity (lower EC50 values)
